The values below come from patent EP1244779B1.

Common to all, as to experiment: cell-based or functional assay
Assay [1] addresses subtilisin 309 variant S99SD (B. lentus) (UniProt P29600).
Assay [2] addresses subtilisin 309 variant S99SD + S99A (B. lentus) (UniProt P29600).
For assay [3], the target named is subtilisin 309 variant S99SN (B. lentus) (UniProt P29600).
Assay [4] deals with Savinase (subtilisin 309 from B. lentus) (B. lentus) (UniProt P29600).
The target in assay [5] is subtilisin 309 variant S99SD + S99A + L42LN (B. lentus) (UniProt P29600).
The target in assay [6] is subtilisin 309 variant S99SD + S99A + S216SP (B. lentus) (UniProt P29600).
Assay [7] deals with subtilisin 309 variant S99SQ + S99T (B. lentus) (UniProt P29600).
The target of assay [8] is subtilisin 309 variant S99SD + S99A + T143K (B. lentus) (UniProt P29600).
For assay [9], the target named is subtilisin 309 variant S99SR + S99T (B. lentus) (UniProt P29600).
Assay [10] deals with subtilisin 309 variant S99SD + S99A + L217LP (B. lentus) (UniProt P29600).
Assay [11] addresses subtilisin 309 variant A98AI+A98G+S99H+G100S+S101A (B. lentus) (UniProt P29600).
In assay [12] the target is subtilisin 309 variant S99SD + S99A + P131T (B. lentus) (UniProt P29600).
The target of assay [13] is subtilisin 309 variant S99SD + S99A + P129PR (B. lentus) (UniProt P29600).
In assay [14] the target is subtilisin 309 variant S99SD + S99A + L217F + A228V + A230V (B. lentus) (UniProt P29600).
Assay [15] concerns the target subtilisin 309 variant A98AT + Y167A + R170S + A194P (B. lentus) (UniProt P29600).
Assay [16] concerns the target subtilisin 309 variant S99SE (B. lentus) (UniProt P29600).
The target of assay [17] is subtilisin 309 variant S99SD + S99A + S216SDP (B. lentus) (UniProt P29600).
The target of assay [18] is subtilisin 309 variant S99SD + M222S (B. lentus) (UniProt P29600).
For assay [19], the target named is subtilisin 309 variant S99SD + S99A + A133E (B. lentus) (UniProt P29600).
Assay [20] concerns the target subtilisin 309 variant S99SD + S99A + P129PD (B. lentus) (UniProt P29600).
Assay [21] deals with subtilisin 309 variant S99SD + N76D + A194P + A230V (B. lentus) (UniProt P29600).

On to “trypsin inhibitor type IV-0 (Ovo-inhibitor) (from UniProt P10184 69-517)”, for which the Residual Activity (%) is 25% in [1]; 27.3% in assay [2]; 19% in [3]; less than 5% in assay [4]; 69.2% in assay [5]; 29.2% in [6]. In addition, the Residual Activity (%) in assay [7] came out at 25%; in assay [8], 23%; in assay [9] it was 67.7%; in assay [10], 97%; in [11], 22%; in assay [12], 35.6%. In addition, the Residual Activity (%) in assay [13] was found to be 21%; in [14] it was 12%; in [15] it was 88%; in assay [16] it was 27%; in assay [17] it was 35%; in assay [18] it was 25%. The Residual Activity (%) in [19] turned out to be 39%; in assay [20], 50%; in [21] it was 18.4%.
